Publication PMC9622860, “Structural and molecular determinants of Candida glabrata metacaspase maturation and activation by calcium” (Communications Biology, 2022)

Target: T1, p20 domain of mature CgMCA-I (fragment between the cleavages after R54 and K263) (Candida glabrata, UniProt Q6FPX9 55-263)
T1 construct: Candida glabrata metacaspase CgMCA-I, p20 fragment left after cleavage after R54 and after K263; Residues seen in the maps: from after Gly68 (7QP1) or after Ser72 (7QP0) up to before Asn260; Limits are worked out from the cleavage sites found by mass spectrometry (R54, K263); The N-terminal His tag leaves with residues 1-54; source: E. coli T7 express, purified as CgMCA-I; cleaved by its own …
T1 sequence (looked up): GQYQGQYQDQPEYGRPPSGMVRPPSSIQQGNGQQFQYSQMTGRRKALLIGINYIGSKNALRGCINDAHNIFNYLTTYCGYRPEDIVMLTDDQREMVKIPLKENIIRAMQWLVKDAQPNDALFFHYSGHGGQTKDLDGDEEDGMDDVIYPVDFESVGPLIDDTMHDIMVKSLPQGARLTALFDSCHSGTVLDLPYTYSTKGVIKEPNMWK
Assay: crystal structure; fully matured CgMCA-I with Ca2+ (7QP1, 3.0 A) and with Mg2+ (7QP0, 1.6 A); N-terminal part and p20-p10 linker cleaved off
Conditions: both partners purified

B1: p10 domain of mature CgMCA-I (fragment after the cleavage at R307) (domain or fragment, Candida glabrata, UniProt Q6FPX9 308-392, looked up)
chain: QIKFSPADVIMLSGSKDNQTSADTFADGQNIGAMSHAFISVMTRQPQQSYLSLLQNLRNELAGKYSQKPQLSASHPIDVNLQFIM
notes: Candida glabrata metacaspase CgMCA-I, C-terminal p10 fragment left after cleavage after R307; Residues seen in the maps begin after Ile309; Limits are worked out from the cleavage site found by mass spectrometry (R307) and the stated length of 392 residues; also called p10 subunit; source: E. coli T7 express, purified as CgMCA-I; cleaved by its own maturation before or during crystallisation
B1: binds.
